Consider five substances from article PMC10034513.

For series [1], the target named is P74-26 TTP L229A variant (bacteriophage P74-26). The experiment in a line: light scattering of tube assembly; filtered TTP at ~1 mg/ml, scattering at 350 nm over time; wild type at 4, 20, 25, 37 and 50 °C and a concentration series at 37 °C; variants at 20 °C.
Series [2] addresses P74-26 tail tube protein (TTP), gp93, recombinant wild type (bacteriophage P74-26). Described as above.
Series [3] has the same target. The series is described as follows: SEC-MALS; 100 μl at 1 mg/ml, filtered through 0.22 μm before loading; 50 mM Tris pH 8.0, 150 mM KCl, 5 mM βME, 5% glycerol; run at room temperature.
Series [4] deals with P74-26 TTP Q167A variant (bacteriophage P74-26). The description is as above.
Assay in series [5]: as above
Series [6] concerns the target P74-26 tail tube protein (TTP), gp93, in tails of purified virions (bacteriophage P74-26). The series is described as follows: cryo-EM structure; tails of purified P74-26 virions, segmented helical reconstruction (C3, rise 40.25 Å, twist -44.75°).

Take “P74-26 TTP L229A variant (natural protein)”: in series [1], the tube formation rate relative to WT (% of the WT rate) turned out to be 10. On to “P74-26 tail tube protein (TTP), gp93, recombinant wild type (natural protein)”, for which, in series [2], the fast-phase tube growth rate at 37 °C relative to the 20 °C rate (fold (× the 20 °C rate)) stood at 68 and the fast-phase tube growth rate at 50 °C relative to the 20 °C rate (fold (× the 20 °C rate)) is 3520. Moreover, in series [3], the mass fraction of the hexamer peak stood at 6% and the stoichiometry N is 6.

In the case of “P74-26 TTP Q167A variant (natural protein)”, the stoichiometry N in series [4] came out at 3. For “P74-26 tail tube protein (TTP), gp93, recombinant wild type”, the “mass fraction of the monomer peak” value in series [5] was “∼76% mass fraction”.

Regarding “P74-26 tail tube protein (TTP), gp93, in tails of purified virions (natural protein)”, in series [6], the stoichiometry N was found to be 3.
